Assay results published in patent US20060121580A1.

molecular target: SARS-CoV preparation (Frankfurt 1 strain); experiment: phage ELISA on coated SARS-CoV preparation, plate 2 (no phage antibody 0.211)

Row | Binder | OD492 nm
1 | SC03-020 (scFv) scFv: AMAEVQLVQSGSEVKKPGESLKISCKGSGYGFITYWIGWVRQMPGKGLEWMGIIYPGDSETRYSPSFQGQVTISADKSINTAYLQWSSLKASDTAIYYCAGGSGISTPMDVWGQGTTVTVSSGTGGSGGTGSGTGGSTDIQMTQSPDSLAVSLGERATINCKSSQKILHSSNNKNYLAWYQQKPGQPPKLLIYWASTRESGVPDRFSGSGSGTDFTLTISSLQAEDVAVYYCQQYYSTPPVFGGGTKVEIKRAA | 0.671 OD492 nm
2 | SC03-021 (scFv) scFv: AMAQVQLVQSGTEVKKPGESLKISCKGSGYGFITYWIGWVRQMPGKGLEWMGIIYPGDSETRYSPSFQGQVTISADKSINTAYLQWSSLKASDTAIYYCAGGSGISTPMDVWGQGTTVTVSSGTGGSGGTGSGTGGSTDVVMTQSPDSLAVSLGERATINCKSSQSVLHSSNNKNYLAWYQQKPGQPPKLLIYWASTRQSGVPDRFSGSGSGTDFTLTISSLQAEDVAVYYCQQYYSTPPTFGQGTKVEIKRAA | 0.215 OD492 nm
3 | SC03-023 (scFv) scFv: AMAQVQLQQWGAGLLKPSETLSLTCAVYGGSFSGFYWSWIRQPPGKGLEWIGEINHSGSTNYNPSLKSRVTISVDTSKNQFSLKLSSVTAADTAVYYCARRVEVVEYQLLRPRYKSWFDPWGQGTLVTVSSGTGGSGGTGSGTGGSTQSALTQPRSVSGSPGQSVTISCTGSSSTVGGYNYVSWYQQHPGKAPKLMIYDVSKRPSGVSNRFSGSKSGNTASLTISGLQAEDEADYYCSSYTSSSTYVFGTGTKVTVLGAA | 1.31 OD492 nm
4 | SC03-024 (scFv) scFv: AMAQVQLVESGSELKIPGASVKVSCKATGYTFTRYSLNWVRQAPGQGLEWVGWINTQTGNSNYGQAFSGRFVFSLDTSVSTAYLQISSLQAEDTATYYCARKSAGSNAFDIWGQGTMVTVSSGTGGSGGTGSGTGGSTQSVVTQPPSVSAAPGQKATISCSGSSSNIGNNYVSWYQQLPGTAPKLLIYDNNKRPSGIPNRFSGSKSGTSATLGITGLQTGDEADYYCGTWDSSLSAYVFGTGTKVTVLGAA | 0.235 OD492 nm
5 | SC03-025 (scFv) scFv: AMAEVQLVESGGGLVQPGGSLRLSCAASGFTFSSYAMHWVRQAPGKGLEYVSGISSNGGSTYYANSVKGRFTISRDNSKNTLYLQMGSLRAEDMAVYYCARTTNRAFDIWGQGTMVTVSSGTGGSGGTGSGTGGSTDIQLTQSPDSLAVSLGERATINCKSSQSVLYSSNNKNYLAWYQQKPGQPPKLLIYWASIRESGVPDRFSGSGSGTDFTLTISSLQAEDVAVYYCQQYYNIPYAFGQGTKLEIKRAA | 1.64 OD492 nm
6 | SC03-026 (scFv) scFv: AMAQVQLVQSGGGLVQPGGSLRLSCAASGFTFSSYAMHWVRQAPGKGLEYVSGISSNGGSTYYANSVKGRFTISRDNSKNTLYLQMGSLRAEDMAVYYCARTTNRAFDIWGQGTMVTVSSGTGGSGGTGSGTGGSTDIQMTQSPDSLAVSLGERATINCKSSQSILYSSNSKNYLGWYQQKPGQPPKLLIYWASTRESGVPDRFSGSGSGTDFTLTISSLQAEDVAVYYCQQYYSTPYSFGQGTKVEIKRAA | 1.07 OD492 nm

molecular target: SARS-CoV preparation (Frankfurt 1 strain); experiment: phage ELISA on coated SARS-CoV preparation, plate 4 (no phage antibody 0.051)

Row | Binder | OD492 nm
7 | SC03-044 (scFv) scFv: AMAEVQLVETGGGLVQPGGSLRLSCAASGFTFSSYAMHWVRQAPGKGLEYVSGISSNGGSTYYANSVKGRFTISRDNSKNTLYLQMGSLRAEDMAVYYCARTTNRAFDIWGQGTMVTVSSGTGGSGGTGSGTGGSTDIQMTQSPDSLAVSLGERATINCKSSQSVLYSSNNKNYLAWYQQKPGQPPKLLIYWASTRESGVPDRFRGSGSGTDFTLTISSLQAEDLAVYYCQQYYSTPYSFGQGTKLEIKRAA | 0.518 OD492 nm
